Source: patent publication US20070154994A1

Assays:
[1] = target: Recombinant human TGF-β1 (human) (UniProt P01137); assay: SPR, TGF-β1 coupled, rearrangement model, Kd 1 (initial binding step)
[2] = target: Recombinant human TGF-β1 (human) (UniProt P01137); assay: SPR, TGF-β1 coupled, rearrangement model, Kdapp
[3] = target: Recombinant human TGF-β1 (human) (UniProt P01137); assay: SPR, TGF-β1 coupled, rearrangement model, rearrangement step
[4] = target: Recombinant human TGF-β1 (human) (UniProt P01137); assay: SPR, TGF-β1 coupled, rearrangement model, Kdiss#1
[5] = target: Recombinant human TGF-β1 (human) (UniProt P01137); assay: SPR, TGF-β1 coupled, rearrangement model, kass#1

Sequence of Recombinant human TGF-β1 (human) (P01137 279-390 limits assumed): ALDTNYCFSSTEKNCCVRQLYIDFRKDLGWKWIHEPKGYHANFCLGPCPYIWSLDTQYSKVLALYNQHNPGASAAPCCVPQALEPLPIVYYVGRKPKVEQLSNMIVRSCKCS

Kd [1]: 713 nM | Kd [2]: 302 nM | kass#2 [3]: 0.0029 s⁻¹ | kd 2 (no unit) [3]: 0.73 no unit | kdiss#2 [3]: 0.00217 s⁻¹ | koff [4]: 0.0535 s⁻¹ | kon [5]: 75000 M⁻¹ s⁻¹
B1: untagged CtermTβRIIIED (receptor, UniProt P26342 576-782, looked up)
chain: RQLRNPSGFQGQLDGNATFNMELYNTDLFLVPSPGVFSVAENEHVYVEVSVTKADQDLGFAIQTCFLSPYSNPDRMSDYTIIENICPKDDSVKFYSSKRVHFPIPHAEVDKKRFSFLFKSVFNTSLLFLHCELTLCSRKKGSLKLPRCVTPDDACTSLDATMIWTMMQNKKTFTKPLAVVLQVDYKENVPSTKDSSPIPPPPPQIFH
